Reference: US20150344570A1 (published 2015)

T1: FcγRIIb (human, UniProt P31994 43-217)
T1 construct: extracellular domain; Soluble extracellular domain with C-terminal His tag, used as analyte; also called FcgRIIb; CD32B; not shown: His tag at the C terminus
T1 sequence (looked up): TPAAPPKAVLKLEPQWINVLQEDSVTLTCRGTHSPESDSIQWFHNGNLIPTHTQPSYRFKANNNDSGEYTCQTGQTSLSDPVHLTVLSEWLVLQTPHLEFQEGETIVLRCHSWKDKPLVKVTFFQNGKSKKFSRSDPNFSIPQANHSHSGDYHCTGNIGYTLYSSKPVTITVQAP

B1: GpH7-A5/GpH7-B3 variant Y300_01G/GpL16-k0 (antibody, human IgG1, kappa)
heavy 1: not shown
heavy 2: not shown
light: DIVMTQSPLSLPVTPGEPASISCQASESLVHSNRNTYLHWYLQKPGQSPQLLIYKVSNRFSGVPDRFSGSGSGTDFTLKISRVEAEDVGVYYCSQNTHVPPTFGQGTKVEIERTVAAPSVFIFPPSDEQLKSGTASVVCLLNNFYPREAKVQWKVDNALQSGNSQESVTEQDSKDSTYSLSSTLTLSKADYEKHKVYACEVTHQGLSSPVTKSFNRGEC
notes: He Ab: mutation in one H chain only; also called He Ab
B2: GpH7-A5/GpH7-B3 variant N325_02A/GpL16-k0 (antibody, human IgG1, kappa)
heavy 1: not shown
heavy 2: not shown
light: B1 light
notes: as for B1
B3: GpH7-A5/GpH7-B3 variant A327_15Y/GpL16-k0 (antibody, human IgG1, kappa)
heavy 1: not shown
heavy 2: not shown
light: B1 light
notes: as for B1
B4: GpH7-A5/GpH7-B3 variant I336_19Q/GpL16-k0 (antibody, human IgG1, kappa)
heavy 1: not shown
heavy 2: not shown
light: B1 light
notes: as for B1
B5: GpH7-A5/GpH7-B3 variant I336_13S/GpL16-k0 (antibody, human IgG1, kappa)
heavy 1: not shown
heavy 2: not shown
light: B1 light
notes: as for B1
B6: GpH7-A5/GpH7-B3 variant A327_08L/GpL16-k0 (antibody, human IgG1, kappa)
heavy 1: not shown
heavy 2: not shown
light: B1 light
notes: as for B1
B7: GpH7-A5/GpH7-B3 variant I336_09D/GpL16-k0 (antibody, human IgG1, kappa)
heavy 1: not shown
heavy 2: not shown
light: B1 light
notes: as for B1
B8: GpH7-A5/GpH7-B3 variant I336_11K/GpL16-k0 (antibody, human IgG1, kappa)
heavy 1: not shown
heavy 2: not shown
light: B1 light
notes: as for B1
B9: GpH7-A5/GpH7-B3 variant I336_04F/GpL16-k0 (antibody, human IgG1, kappa)
heavy 1: not shown
heavy 2: not shown
light: B1 light
notes: as for B1
B10: GpH7-A5/GpH7-B3 variant I336_18N/GpL16-k0 (antibody, human IgG1, kappa)
heavy 1: not shown
heavy 2: not shown
light: B1 light
notes: as for B1
B11: GpH7-A5/GpH7-B3 variant I336_16H/GpL16-k0 (antibody, human IgG1, kappa)
heavy 1: not shown
heavy 2: not shown
light: B1 light
notes: as for B1
B12: GpH7-A5/GpH7-B3 variant I336_12R/GpL16-k0 (antibody, human IgG1, kappa)
heavy 1: not shown
heavy 2: not shown
light: B1 light
notes: as for B1
B13: GpH7-A5/GpH7-B3 variant I336_10E/GpL16-k0 (antibody, human IgG1, kappa)
heavy 1: not shown
heavy 2: not shown
light: B1 light
notes: as for B1
B14: GpH7-A5/GpH7-B3 variant A327_04F/GpL16-k0 (antibody, human IgG1, kappa)
heavy 1: not shown
heavy 2: not shown
light: B1 light
notes: as for B1
B15: GpH7-A5/GpH7-B3 variant A327_13S/GpL16-k0 (antibody, human IgG1, kappa)
heavy 1: not shown
heavy 2: not shown
light: B1 light
notes: as for B1
B16: GpH7-A5/GpH7-B3 variant I336_14T/GpL16-k0 (antibody, human IgG1, kappa)
heavy 1: not shown
heavy 2: not shown
light: B1 light
notes: as for B1
B17: GpH7-A5/GpH7-B3 variant I336_15Y/GpL16-k0 (antibody, human IgG1, kappa)
heavy 1: not shown
heavy 2: not shown
light: B1 light
notes: as for B1
B18: GpH7-A5/GpH7-B3 variant A327_05P/GpL16-k0 (antibody, human IgG1, kappa)
heavy 1: not shown
heavy 2: not shown
light: B1 light
notes: as for B1
B19: GpH7-A5/GpH7-B3 variant A327_11K/GpL16-k0 (antibody, human IgG1, kappa)
heavy 1: not shown
heavy 2: not shown
light: B1 light
notes: as for B1
B20: GpH7-A5/GpH7-B3 variant A327_06M/GpL16-k0 (antibody, human IgG1, kappa)
heavy 1: not shown
heavy 2: not shown
light: B1 light
notes: as for B1

Biological target: T1, FcγRIIb
Experiment: SPR (Biacore), captured antibody, FcγR as analyte, relative binding
Method: (§1) The heterodimerized antibodies He Abs in which one of the H chains was introduced with an alteration were assayed for their binding activities to each activating FcγR and inhibitory FcγR according to the method described in Example 4. […] The activating FcγRs in FIGS. 26, 27, 28, and 29 are FcγRIa, FcγRIIa (R), FcγRIIa (H), and FcγRIIIa, respectively.
(§2) Analysis of interaction between objective antibody and the FcγR was carried out using Biacore T100 (GE Healthcare). HBS-EP+ (GE Healthcare) was used as the running buffer, and the measurement temperature was set to 25° C. Chips produced by immobilizing the antigen peptide by the amine coupling method to a Series S Sencor Chip CM5 (GE Healthcare), or alternatively, chips produced by allowing preliminarily biotinylated antigen peptides to interact with and immobilize onto a Series S Sensor Chip SA (certified) (GE Healthcare) were used. Antibodies of interest were captured onto an antigen peptide-immobilized chip, and allowed to interact to each FcγR diluted with running buffer. To regenerate and repeatedly use the chip, the antibodies captured on the chip were washed off by reacting 10 mM glycine-HCl, pH 1.5.

Row | He/Con_2b | Binder
1 | 48.4 % of GpH7-A5/GpH7-B3/GpL16-k0 | B1
2 | 64.4 % of GpH7-A5/GpH7-B3/GpL16-k0 | B2
3 | 60.8 % of GpH7-A5/GpH7-B3/GpL16-k0 | B3
4 | 58.2 % of GpH7-A5/GpH7-B3/GpL16-k0 | B4
5 | 83.7 % of GpH7-A5/GpH7-B3/GpL16-k0 | B5
6 | 63.1 % of GpH7-A5/GpH7-B3/GpL16-k0 | B6
7 | 92.1 % of GpH7-A5/GpH7-B3/GpL16-k0 | B7
8 | 90.3 % of GpH7-A5/GpH7-B3/GpL16-k0 | B8
9 | 91.2 % of GpH7-A5/GpH7-B3/GpL16-k0 | B9
10 | 97.6 % of GpH7-A5/GpH7-B3/GpL16-k0 | B10
11 | 85.8 % of GpH7-A5/GpH7-B3/GpL16-k0 | B11
12 | 92.1 % of GpH7-A5/GpH7-B3/GpL16-k0 | B12
13 | 89.8 % of GpH7-A5/GpH7-B3/GpL16-k0 | B13
14 | 63.7 % of GpH7-A5/GpH7-B3/GpL16-k0 | B14
15 | 79.5 % of GpH7-A5/GpH7-B3/GpL16-k0 | B15
16 | 89.5 % of GpH7-A5/GpH7-B3/GpL16-k0 | B16
17 | 68.2 % of GpH7-A5/GpH7-B3/GpL16-k0 | B17
18 | 69.3 % of GpH7-A5/GpH7-B3/GpL16-k0 | B18
19 | 12.5 % of GpH7-A5/GpH7-B3/GpL16-k0 | B19
20 | 59.5 % of GpH7-A5/GpH7-B3/GpL16-k0 | B20

Biological target: T2, FcγRIa (human, UniProt P12314 16-292)
T2 construct: extracellular domain; Soluble extracellular domain with C-terminal His tag, used as analyte; also called FcgRI; CD64; not shown: His tag at the C terminus
T2 sequence (P12314 16-292): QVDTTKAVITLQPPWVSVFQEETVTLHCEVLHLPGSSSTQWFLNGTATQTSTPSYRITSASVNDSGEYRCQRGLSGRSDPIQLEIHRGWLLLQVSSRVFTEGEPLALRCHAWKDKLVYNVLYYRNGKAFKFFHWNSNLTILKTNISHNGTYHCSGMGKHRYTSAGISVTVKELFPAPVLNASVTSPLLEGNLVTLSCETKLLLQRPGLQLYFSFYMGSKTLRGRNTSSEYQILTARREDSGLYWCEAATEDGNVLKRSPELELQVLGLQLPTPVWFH
Experiment: as above
Method: as §1, §2

Row | He/Con_1a | Binder
21 | 116 % of GpH7-A5/GpH7-B3/GpL16-k0 | B1
22 | 96.8 % of GpH7-A5/GpH7-B3/GpL16-k0 | B2
23 | 96.3 % of GpH7-A5/GpH7-B3/GpL16-k0 | B3
24 | 104 % of GpH7-A5/GpH7-B3/GpL16-k0 | B4
25 | 102 % of GpH7-A5/GpH7-B3/GpL16-k0 | B5
26 | 98.6 % of GpH7-A5/GpH7-B3/GpL16-k0 | B6
27 | 104 % of GpH7-A5/GpH7-B3/GpL16-k0 | B7
28 | 105 % of GpH7-A5/GpH7-B3/GpL16-k0 | B8
29 | 106 % of GpH7-A5/GpH7-B3/GpL16-k0 | B9
30 | 108 % of GpH7-A5/GpH7-B3/GpL16-k0 | B10
31 | 101 % of GpH7-A5/GpH7-B3/GpL16-k0 | B11
32 | 102 % of GpH7-A5/GpH7-B3/GpL16-k0 | B12
33 | 108 % of GpH7-A5/GpH7-B3/GpL16-k0 | B13
34 | 99.1 % of GpH7-A5/GpH7-B3/GpL16-k0 | B14
35 | 102 % of GpH7-A5/GpH7-B3/GpL16-k0 | B15
36 | 104 % of GpH7-A5/GpH7-B3/GpL16-k0 | B16
37 | 103 % of GpH7-A5/GpH7-B3/GpL16-k0 | B17
38 | 99.3 % of GpH7-A5/GpH7-B3/GpL16-k0 | B18
39 | 86.1 % of GpH7-A5/GpH7-B3/GpL16-k0 | B19
40 | 103 % of GpH7-A5/GpH7-B3/GpL16-k0 | B20
